According to PMC1665450, “Molecular modeling and characterization of Vibrio cholerae transcription regulator HlyU” (BMC Structural Biology, 2006):

Biological target: the molecule itself
Assay: not stated; unpublished results (Saha & Chakrabarti); HlyU after cleavage of the N-terminal His6-tag

B1: Vibrio cholerae transcription regulator HlyU (natural protein)
chain: MPYLKGAPMNLQEMEKNSAKAVVLLKAMANERRLQILCMLLDNELSVGELSSRLELSQSALSQHLAWLRRDGLVNTRKEAQTVFYTLSSTEVKAMIELLHRLYCQANQ
notes: also called Vc-HlyU; not shown: His6, N-terminal, cleaved
  stoichiometry N: 2
